Measured values from article PMC12514839 (Protein science : a publication of the Protein Society, 2025).

Molecular target: CU228, putative PAS-HTH transcription factor from Candidatus Solibacter usitatus (Candidatus Solibacter usitatus)
Assay: SEC-MALS

CU228, putative PAS-HTH transcription factor from Candidatus Solibacter usitatus (natural protein)
stoichiometry N: 2
